# T1: transglutaminase 2 (UniProt P08587)
# T1 construct: transglutaminase purified from guinea pig liver; purchased Sigma T5398; host or cells: guinea pig liver
# T1 sequence (P08587 1-690): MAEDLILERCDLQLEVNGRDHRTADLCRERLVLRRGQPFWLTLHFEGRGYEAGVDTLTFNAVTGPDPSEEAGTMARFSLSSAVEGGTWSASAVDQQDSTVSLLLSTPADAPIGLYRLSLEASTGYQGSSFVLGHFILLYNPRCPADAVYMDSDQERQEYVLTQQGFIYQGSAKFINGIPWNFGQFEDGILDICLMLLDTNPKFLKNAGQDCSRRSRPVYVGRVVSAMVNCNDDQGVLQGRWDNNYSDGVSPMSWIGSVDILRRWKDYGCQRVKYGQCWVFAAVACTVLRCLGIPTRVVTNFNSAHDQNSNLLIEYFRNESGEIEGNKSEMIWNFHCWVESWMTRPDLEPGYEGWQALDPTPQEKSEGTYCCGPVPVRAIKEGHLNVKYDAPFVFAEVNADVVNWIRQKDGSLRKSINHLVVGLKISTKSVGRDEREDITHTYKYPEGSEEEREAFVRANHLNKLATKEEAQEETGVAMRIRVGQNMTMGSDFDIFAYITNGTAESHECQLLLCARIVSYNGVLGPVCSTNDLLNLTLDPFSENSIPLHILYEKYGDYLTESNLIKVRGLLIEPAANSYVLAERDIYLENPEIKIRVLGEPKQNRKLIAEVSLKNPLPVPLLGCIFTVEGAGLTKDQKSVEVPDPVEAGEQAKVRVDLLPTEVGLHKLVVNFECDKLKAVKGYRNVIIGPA
# T2: transglutaminase 3 (Homo sapiens, UniProt Q08188)
# T2 construct: purchased R&D Systems
# T2 sequence (Q08188 1-693): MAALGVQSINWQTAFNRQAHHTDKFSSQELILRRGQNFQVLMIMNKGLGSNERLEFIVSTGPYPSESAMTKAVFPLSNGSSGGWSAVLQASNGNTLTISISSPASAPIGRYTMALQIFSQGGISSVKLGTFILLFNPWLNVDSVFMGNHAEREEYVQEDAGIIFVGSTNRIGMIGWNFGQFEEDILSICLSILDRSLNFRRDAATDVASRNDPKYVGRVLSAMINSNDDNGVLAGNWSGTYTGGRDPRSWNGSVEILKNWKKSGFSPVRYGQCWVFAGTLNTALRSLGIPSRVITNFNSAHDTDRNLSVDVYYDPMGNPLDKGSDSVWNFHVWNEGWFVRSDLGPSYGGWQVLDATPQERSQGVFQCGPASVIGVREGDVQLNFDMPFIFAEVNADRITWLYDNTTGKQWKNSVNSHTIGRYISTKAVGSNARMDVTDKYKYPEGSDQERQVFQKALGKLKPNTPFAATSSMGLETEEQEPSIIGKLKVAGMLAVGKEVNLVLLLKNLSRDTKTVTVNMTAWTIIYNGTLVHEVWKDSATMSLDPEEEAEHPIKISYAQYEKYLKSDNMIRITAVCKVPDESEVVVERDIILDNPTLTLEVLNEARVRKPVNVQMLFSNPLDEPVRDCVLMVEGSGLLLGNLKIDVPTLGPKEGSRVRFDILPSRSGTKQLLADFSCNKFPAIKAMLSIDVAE
# B1: LCE6A-His: recombinant LCE6A possessing a C-terminal histidine tag (protein, UniProt A0A183 1-80, looked up)
# Late cornified envelope …: MSQQKQQSWKPPNVPKCSPPQRSNPCLAPYSTPCGAPHSEGCHSSSQRPEVQKPRRARQKLRCLSRGTTYHCKEEECEGD
# modifications: His tag
# B2: LCE6A: polypeptide of 80 amino acids of the Late Cornified Envelope family, expressed in the epidermis (protein, listed as Homo sapiens)
# chain: B1 Late cornified envelope …
# Assays:
# transglutaminase 2 = molecular target: T1, transglutaminase 2; test: In-vitro transglutaminase 2 binding assay (TGM2); assay type: biochemical, guinea pig
# Procedure: A binding assay of LCE6A by transglutaminase 2 (transglutaminase purified from guinea pig liver, Sigma T5398) was performed in vitro.
# (§1) In a first experiment, the applicant tested the capacity of TGM2 to form bridges between LCE-His and a molecule bearing an amine bond, monodansyl cadaverine (MDC). For this, TGM2 (10 ng/μL) was incubated in the presence of 0.35 μg of LCE6A-His in solution in a buffer 50 mM Tris, 100 mM DTT, pH 7.4, with addition of 10 mM CaCl2 and 500 μM MDC (Fluka). After incubation for 2 h or 18 h at 37° C., the reaction is stopped by adding EDTA to final 25 mM. The negative control corresponds to the same experiment performed in the absence of CaCl2 and in the presence of 100 mM of ETDA after incubation for 18 h. The reaction product is separated by SDS-PAGE 15%, then visualized by illumination with UV.
# In a second experiment, the applicant also tested the capacity of TGM2 to form bridges of LCE6A with itself. For this, TGM2 (10 ng/μL) was incubated in the presence of 0.35 μg of LCE6A-His in a buffer 50 mM Tris, 100 mM DTT, pH 7.4, with addition of 10 mM CaCl2. After incubation for 2 h or 18 h at 37° C., the reaction is stopped by adding EDTA to final 25 mM. The negative control corresponds to the same experiment performed in the absence of CaCl2 and in the presence of 100 mM of ETDA after incubation for 18 h. The reaction product is separated by SDS-PAGE 15% and transferred onto a nitrocellulose membrane. The intermolecular bonds are visualized by Western Blot as described above with an anti-His antibody (mouse monoclonal IgG1 “Tetra-His antibody”, Qiagen).
# transglutaminase 3 = molecular target: T2, transglutaminase 3; test: In-vitro transglutaminase 3 binding assay (TGM3); assay type: biochemical
# Procedure: A binding assay of LCE6A by transglutaminase 3 (human recombinant transglutaminase 3, R&D Systems) was performed in vitro. These assays are carried out according to the same experimental protocol as that described in example 4 paragraph 2 with transglutaminase 2.
# as §1, with “TGM3” for “TGM2”, “and” for “and a molecule bearing an amine bond,”
# In a second experiment, the applicant tested the capacity of TGM3 to form bridges of LCE6A with itself. For this, TGM3 (10 ng/μL) was incubated in the presence of 0.35 μg of LCE6A-His in a buffer 50 mM Tris, 100 mM DTT, pH 7.4, with addition of 10 mM CaCl2. After incubation for 2 h or 18 h at 37° C., the reaction is stopped by adding EDTA to final 25 mM. The negative control corresponds to the same experiment performed in the absence of CaCl2 and in the presence of 100 mM of ETDA after incubation for 18 h. The reaction product is separated by SDS-PAGE 15% and transferred onto a nitrocellulose membrane. The intermolecular bonds are visualized by Western Blot as described above with an anti-His antibody (mouse monoclonal IgG1 “Tetra-His antibody”, Qiagen).
# [1] = 100 mM EDTA, absence of calcium, 18 h
# [2] = absence of calcium, 100 mM EDTA
Molecule,"capacity of TGM2 to form bridges between LCE-His and MDC, fluorescent bands, negative control (transglutaminase 2; [1])","capacity of TGM2 to form bridges between LCE-His and monodansyl cadaverine (MDC), fluorescent bands after SDS-PAGE under UV (transglutaminase 2; TGM2 10 ng/μL, 10 mM CaCl2, 500 μM MDC, starting from 2 h of incubation at 37° C.)","capacity of TGM2 to form bridges of LCE6A with itself, Western Blot with anti-His antibody (transglutaminase 2; TGM2 10 ng/μL, 10 mM CaCl2, 2 h or 18 h at 37° C.)","capacity of TGM2 to form bridges of LCE6A with itself, Western Blot, negative control (transglutaminase 2; [2])","capacity of TGM3 to form bridges between LCE-His and MDC, fluorescent bands, negative control (transglutaminase 3; [1])","capacity of TGM3 to form bridges between LCE-His and monodansyl cadaverine (MDC), fluorescent bands after SDS-PAGE under UV (transglutaminase 3; TGM3 10 ng/μL, 10 mM CaCl2, 500 μM MDC, starting from 2 h of incubation at 37° C.)","capacity of TGM3 to form bridges of LCE6A with itself, Western Blot with anti-His antibody (transglutaminase 3; TGM3 10 ng/μL, 10 mM CaCl2, 2 h or 18 h at 37° C.)","capacity of TGM3 to form bridges of LCE6A with itself, Western Blot, negative control (transglutaminase 3; [2])",substrate of transglutaminase 2 (conclusion) (transglutaminase 2),substrate of transglutaminase 3 (conclusion) (transglutaminase 3)
B1,"No fluorescent band, apart from that corresponding to the free MDC, is detected",several fluorescent bands were detected,several bands of higher molecular weight migrating to a size equivalent to dimers or multimers of LCE6A-His,Only the band corresponding to monomeric LCE6A-His is detected,"No fluorescent band, apart from that corresponding to the free MDC, is detected",several fluorescent bands were detected,several bands of higher molecular weight migrating to a size equivalent to dimers or multimers of LCE6A-His,Only the band corresponding to monomeric LCE6A-His is detected,–,–
B2,–,–,–,–,–,–,–,–,substrate of transglutaminase 2,substrate of transglutaminase 3
